Assay results reported in US20250049953A1, “TREATMENT AND METHOD FOR INHIBITING LATE NA CURRENT” (THE TRUSTEES OF COLUMBIA UNIVERSITY IN THE CITY OF NEW YORK, priority 2022, published 2025).

How the values were obtained:
[1] = test system: aMVMs from IQ/AA mutant mice; assay: Multichannel recordings of INa,L in cultured aMVM from IQ/AA transgenic mice; type: cell-based, mouse; conditions: aMVM transduced with FHF2-shRNA, incubation with FixR-cpp (2 hour)
From the text: As FHF2 is natively expressed in the murine heart, we considered whether manipulation of ambient FHF levels in adult mouse ventricular myocytes (aMVM) tunes INa,L. To do so, we utilized our recently published transgenic mouse models expressing (1) pseudo-wild-type NaV1.5 (pWT), and (2) IQ/AA mutant channels that abolish the interaction of CaM, a de facto channel subunit involved in the modulation of late Na current. […] Whether this discrepancy stems from INa,L modulation by endogenous FHF in cardiomyocytes is not fully established. Accordingly, we undertook cell-attached multichannel recordings to measure changes in the magnitude of INa,L upon downregulating FHF2 levels using shRNA. […] Of note, the amplitude of INa,L here is quantified as Rpersist, the ratio of the average open probability (PO) following 50 ms of depolarization and the peak PO. This approach allows robust quantification of the likelihood of late channel openings, while still maintaining the cytosolic milieu and intact signaling. Downregulation of FHF2 by adenovirally transduced shRNA had no effect on INa,L of pWT mice (FIGS. 1D and 1H), as expected given the strong inactivation of wild-type NaV1.5. […] Expression of scrambled shRNA had no effect on INa,L in aMVMs from both pWT and IQ/AA mutant mice (FIGS. IF-1H). Similar to pWT, INa,L of non-transgenic mice was also insensitive to FHF2 manipulation (FIG. 1H and 7A-7D). […]

HEK293 cells = type: in vitro ADME; conditions: 10 μM
Procedure: The peptide encoding FixR-cpp was chemically synthesized by Genscript (98% purity) to contain the cell permeating viral TAT sequence in the amino-terminus: […] (SEQ ID NO. 2). The amino terminus of the peptide contained a FITC fluorophore to visualize cell uptake. The peptide was resuspended in DMSO. Flow cytometric assays were performed to quantify FixR cellular uptake in both HEK293 cells and freshly dissociated aMVM. HEK293 cells were cultured in 12 well plates and incubated with different concentrations of FixR-cpp for 2 hours and stained for cell death detection using LIVE/DEAD™ Fixable Far Red Dead Cell Stain Kit (ThermoFisher Scientific, L10120). Similarly, non-TG and IQ/AA^tg freshly dissociated aMVM were incubated with various concentrations of FixR-cpp for 2 hours in Tyrode's solution (138 mM NaCl, 4 mM KCl, 1 mM MgCl2, 10 mM HEPES (pH 7.4 using NaOH), 0.2 mM NaHPO4 5 mM D-glucose, 1 mM CaCl2). For cellular uptake measurements, we utilized an LSR II (BD Biosciences) flow cytometer equipped with 405 nm, 488 nm, and 633 nm lasers for excitation and 18 different emission channels. Forward and side scatter signals were detected and used to gate for single and healthy cells. […] Histograms from the Fluorescein 5(6)-isothiocyanate (FITC) and Allophycocyanin (APC) channels for the single-cell population were obtained and analyzed using FlowJo (version X, FlowJo LLC).

Substance: FixR-cpp: FixR fused to HIV-1 TAT transduction domain, YGRKKRRQRRRAAAIASSLIRQKRQARESNSERVSASKRRSSPSKG (SEQ ID NO: 2)
- reduction in Rpersist [1]: ~10 fold
- cells showing increased fluorescence compared to background (HEK293 cells; 2 hours of incubation, FITC-tagged): ~90%
- enhancement in fluorescence intensity (HEK293 cells; 2 hours, flow-cytometry): ~100 fold
